Results: publication PMC10549240 (RSC Chemical Biology, 2023)
Each block holds one binder with its values, some of them ahead of it. *: point of attachment. Biotin = O=C1N[C@H]2[C@H](CS[C@H]2CCCCC(=O)*)N1; AEEA = NCCOCCOCC(=O)O

B1: Bio-PepK (peptide)
peptide: {Biotin-AEEA}-KIAALKEKIAALKEKIAALKE-NH2
SMILES: CC[C@H](C)[C@H](NC(=O)[C@H](CCCCN)NC(=O)COCCOCCNC(=O)CCCC[C@@H]1SC[C@@H]2NC(=O)N[C@@H]21)C(=O)N[C@@H](C)C(=O)N[C@@H](C)C(=O)N[C@@H](CC(C)C)C(=O)N[C@@H](CCCCN)C(=O)N[C@@H](CCC(=O)O)C(=O)N[C@@H](CCCCN)C(=O)N[C@H](C(=O)N[C@@H](C)C(=O)N[C@@H](C)C(=O)N[C@@H](CC(C)C)C(=O)N[C@@H](CCCCN)C(=O)N[C@@H](CCC(=O)O)C(=O)N[C@@H](CCCCN)C(=O)N[C@H](C(=O)N[C@@H](C)C(=O)N[C@@H](C)C(=O)N[C@@H](CC(C)C)C(=O)N[C@@H](CCCCN)C(=O)N[C@@H](CCC(=O)O)C(N)=O)[C@@H](C)CC)[C@@H](C)CC
B2: Bio-PepK-StA (peptide)
peptide: {Biotin-AEEA}-KIAALKEKIAALKEKIAALKE-NH2
SMILES: CC[C@H](C)[C@H](NC(=O)[C@H](CCCCN)NC(=O)COCCOCCNC(=O)CCCC[C@@H]1SC[C@@H]2NC(=O)N[C@@H]21)C(=O)N[C@@H](C)C(=O)N[C@@H](C)C(=O)N[C@@H](CC(C)C)C(=O)N[C@@H](CCCCN)C(=O)N[C@@H](CCC(=O)O)C(=O)N[C@@H](CCCCN)C(=O)N[C@H](C(=O)N[C@@H](C)C(=O)N[C@@H](C)C(=O)N[C@@H](CC(C)C)C(=O)N[C@@H](CCCCN)C(=O)N[C@@H](CCC(=O)O)C(=O)N[C@@H](CCCCN)C(=O)N[C@H](C(=O)N[C@@H](C)C(=O)N[C@@H](C)C(=O)N[C@@H](CC(C)C)C(=O)N[C@@H](CCCCN)C(=O)N[C@@H](CCC(=O)O)C(N)=O)[C@@H](C)CC)[C@@H](C)CC

Tests used:
[1] = molecular target: B2; experiment: fluorescence polarisation
[2] = molecular target: activated PepE-Bio (N-terminal acetyl; C-terminal Aoa-Aoa-Lys(biotin)-NH2; glutamate side chains activated with EDC/NHS (NHS esters)); experiment: cross-linking
[3] = molecular target: Fluo-PepE (fluorescein (5(6)-carboxyfluorescein)-Aoa (8-amino-3,6-dioxa-octanoic acid) on the N-terminus; C-terminal amide); experiment: fluorescence polarisation

fold drop in affinity against full-length PepE [1]: ~40 fold
Binder: {fluorescein-AEEA}-EIAALEREIAALEREIA-NH2 [PepE(-4C)]

fold drop in affinity against full-length PepE [1]: ~40 fold
Binder: {fluorescein-AEEA}-EIAALEREIAALEREI-NH2 [PepE(-5C)]

binding result [1]: binds
Binder: {fluorescein-AEEA}-EIAALEREIAALEREIAAL-NH2 [PepE(-2C)]

binding result [1]: binds
Binder: {fluorescein-AEEA}-EIAALEREIAALEREIAALE-NH2 [PepE(-1C)]

Binder: B1
binding result [2]: binds

Binder: B2
binding result [3]: binds

fold drop in affinity against full-length PepE [1]: ~40 fold
Binder: {fluorescein-AEEA}-EIAALEREIAALEREIAA-NH2 [PepE(-3C)]
